# According to article PMC2650427 (Bioconjugate chemistry, 2008):
# Experiment: Determination of q by luminescence lifetime measurements
# Assay type: physicochemical
# Settings: emission 544 nm, excitation 229 nm, 25 scans averaged, monoexponential fit
Substance,kD2O (luminescence decay rate in D2O),kH2O (luminescence decay rate in H2O)
Tb(III)-DOTA-Arg8 [compound 10],0.315 ms^−1,0.566 ms^−1
Tb(III)-DTPA-Arg8 [compound 11],0.331 ms^−1,0.635 ms^−1
Tb(III)-DOTA-SS-Arg8 [compound 12],0.397 ms^−1,0.644 ms^−1
Tb(III)-DTPA-SS-Arg8 [compound 13],0.390 ms^−1,0.671 ms^−1
